# Data reported in PMC10786891, “Massively parallel profiling of RNA-targeting CRISPR-Cas13d”.
# Changes are numbered by the printed parent chain. Names and notes keep the numbering of the source.
# T1: EsCas13d, nuclease-dead (Eubacterium siraeum, UniProt B0MS50, R295A;H300A;R849A;H854A)
# T1 sequence: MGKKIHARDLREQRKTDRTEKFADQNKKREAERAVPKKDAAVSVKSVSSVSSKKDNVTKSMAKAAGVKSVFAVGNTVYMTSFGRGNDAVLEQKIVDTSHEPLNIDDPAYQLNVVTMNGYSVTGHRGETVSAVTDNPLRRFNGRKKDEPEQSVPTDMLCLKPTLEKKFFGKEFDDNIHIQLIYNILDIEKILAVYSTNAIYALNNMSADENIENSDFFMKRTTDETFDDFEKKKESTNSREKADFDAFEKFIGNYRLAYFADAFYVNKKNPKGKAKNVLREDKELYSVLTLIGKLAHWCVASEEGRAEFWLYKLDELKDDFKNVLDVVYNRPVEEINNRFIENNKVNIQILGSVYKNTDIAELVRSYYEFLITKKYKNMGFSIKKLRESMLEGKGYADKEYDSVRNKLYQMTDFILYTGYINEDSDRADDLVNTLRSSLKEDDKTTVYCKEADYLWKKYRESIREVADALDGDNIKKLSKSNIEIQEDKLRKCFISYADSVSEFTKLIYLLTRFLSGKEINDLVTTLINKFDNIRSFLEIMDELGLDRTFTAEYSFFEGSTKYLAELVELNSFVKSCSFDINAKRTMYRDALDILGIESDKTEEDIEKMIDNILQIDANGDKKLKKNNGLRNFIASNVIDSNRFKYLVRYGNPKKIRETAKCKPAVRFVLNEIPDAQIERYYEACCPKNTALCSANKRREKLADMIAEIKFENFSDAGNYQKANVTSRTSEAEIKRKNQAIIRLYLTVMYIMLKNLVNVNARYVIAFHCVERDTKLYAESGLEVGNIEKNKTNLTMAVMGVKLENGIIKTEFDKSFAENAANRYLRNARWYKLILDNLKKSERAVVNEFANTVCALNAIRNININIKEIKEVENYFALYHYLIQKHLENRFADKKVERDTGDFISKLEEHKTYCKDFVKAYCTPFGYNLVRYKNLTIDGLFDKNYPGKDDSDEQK
# B1: target 1 G13A,U19C (mixed)
# RNA 1: CACCCGUGCAAAAAUGCAGGGGUCUAAAACUGAGCGGAUAACCUCUCUAUGG
# RNA 2: GGGAAUGGAUCCACAUCUACGAAUUCGUACCACAGAGAAGUUAUCCGCUCACCGAGAUCGGAAGAGCACACGU
# B2: target 1 insU 3' of 2,insU 3' of 1 (mixed)
# RNA 1: B1 RNA 1
# RNA 2: GGGAAUGGAUCCACAUCUACGAAUUCGUACCAUAGAGAGGUUAUCCGCUCUAUCCGAGAUCGGAAGAGCACACGU
# B3: target 1 C4A,C6A (mixed)
# RNA 1: B1 RNA 1
# RNA 2: B1 RNA 2 with C33U, A39G, C46A, C48A
# B4: target 1 insU 3' of 20,insC 3' of 9 (mixed)
# RNA 1: B1 RNA 1
# RNA 2: GGGAAUGGAUCCACAUCUACGAAUUCGUACCAUUAGAGAGGUUACUCCGCUCACCGAGAUCGGAAGAGCACACGU
# B5: target 1 insG 3' of 22,insA 3' of 7 (mixed)
# RNA 1: B1 RNA 1
# RNA 2: B4 RNA 2 with C31G, A32C, U33A, C45U, U46C, C47A
# B6: target 2 MT 5'PFS GGA 3'PFS UGU (mixed)
# RNA 1: CACCCGUGCAAAAUUGCAGGGGUCUAAAACCUUCUCCAAAUUGUUUCAUCCU
# RNA 2: GGGAAUGGAUCCACAUCUACGAAUUCGGAAGGAUGAAACAAUUUGGAGAAGUGUAGAUCGGAAGAGCACACGU
# B7: target 2 MT 5'PFS CAG 3'PFS AAA (mixed)
# RNA 1: B6 RNA 1
# RNA 2: B6 RNA 2 with G27C, G28A, A29G, U52A, G53A, U54A
# B8: target 2 MT 5'PFS UAG 3'PFS CUG (mixed)
# RNA 1: B6 RNA 1
# RNA 2: B6 RNA 2 with G27U, G28A, A29G, U52C, G53U, U54G
# B9: target 2 MT 5'PFS GCA 3'PFS AUC (mixed)
# RNA 1: B6 RNA 1
# RNA 2: B6 RNA 2 with G28C, U52A, G53U, U54C
# B10: target 2 MT 5'PFS GCA 3'PFS AUA (mixed)
# RNA 1: B6 RNA 1
# RNA 2: B6 RNA 2 with G28C, U52A, G53U, U54A
# B11: target 2 MT 5'PFS GCA 3'PFS AUU (mixed)
# RNA 1: B6 RNA 1
# RNA 2: B6 RNA 2 with G28C, U52A, G53U
# B12: target 2 MT 5'PFS GGG 3'PFS CCG (mixed)
# RNA 1: B6 RNA 1
# RNA 2: B6 RNA 2 with A29G, U52C, G53C, U54G
# B13: target 2 MT 5'PFS UAG 3'PFS CUA (mixed)
# RNA 1: B6 RNA 1
# RNA 2: B6 RNA 2 with G27U, G28A, A29G, U52C, G53U, U54A
# B14: target 2 MT 5'PFS UAG 3'PFS CUC (mixed)
# RNA 1: B6 RNA 1
# RNA 2: B6 RNA 2 with G27U, G28A, A29G, U52C, G53U, U54C
# B15: target 2 MT 5'PFS GAA 3'PFS UCA (mixed)
# RNA 1: B6 RNA 1
# RNA 2: B6 RNA 2 with G28A, G53C, U54A
# B16: target 2 MT 5'PFS CGG 3'PFS CUC (mixed)
# RNA 1: B6 RNA 1
# RNA 2: B6 RNA 2 with G27C, A29G, U52C, G53U, U54C
# B17: target 2 MT 5'PFS GCA 3'PFS AUG (mixed)
# RNA 1: B6 RNA 1
# RNA 2: B6 RNA 2 with G28C, U52A, G53U, U54G
# B18: target 2 MT 5'PFS UUG 3'PFS ACU (mixed)
# RNA 1: B6 RNA 1
# RNA 2: B6 RNA 2 with G27U, G28U, A29G, U52A, G53C
# B19: target 2 MT 5'PFS AGG 3'PFS UCC (mixed)
# RNA 1: B6 RNA 1
# RNA 2: B6 RNA 2 with G27A, A29G, G53C, U54C
# B20: target 2 MT 5'PFS GGA 3'PFS CGC (mixed)
# RNA 1: B6 RNA 1
# RNA 2: B6 RNA 2 with U52C, U54C
# B21: target 2 MT 5'PFS GUA 3'PFS CCA (mixed)
# RNA 1: B6 RNA 1
# RNA 2: B6 RNA 2 with G28U, U52C, G53C, U54A
# B22: target 2 MT 5'PFS UAA 3'PFS UCG (mixed)
# RNA 1: B6 RNA 1
# RNA 2: B6 RNA 2 with G27U, G28A, G53C, U54G
# B23: target 2 MT 5'PFS GGA 3'PFS CGA (mixed)
# RNA 1: B6 RNA 1
# RNA 2: B6 RNA 2 with U52C, U54A
# B24: target 2 MT 5'PFS AAC 3'PFS AGC (mixed)
# RNA 1: B6 RNA 1
# RNA 2: B6 RNA 2 with G27A, G28A, A29C, U52A, U54C
# B25: target 2 MT 5'PFS UGU 3'PFS CGC (mixed)
# RNA 1: B6 RNA 1
# RNA 2: B6 RNA 2 with G27U, A29U, U52C, U54C
# B26: target 2 MT 5'PFS GGG 3'PFS CCA (mixed)
# RNA 1: B6 RNA 1
# RNA 2: B6 RNA 2 with A29G, U52C, G53C, U54A
# B27: target 2 MT 5'PFS UAA 3'PFS UCC (mixed)
# RNA 1: B6 RNA 1
# RNA 2: B6 RNA 2 with G27U, G28A, G53C, U54C
# B28: target 2 MT 5'PFS UAG 3'PFS CUU (mixed)
# RNA 1: B6 RNA 1
# RNA 2: B6 RNA 2 with G27U, G28A, A29G, U52C, G53U
# B29: target 2 MT 5'PFS UUG 3'PFS ACG (mixed)
# RNA 1: B6 RNA 1
# RNA 2: B6 RNA 2 with G27U, G28U, A29G, U52A, G53C, U54G
# B30: target 2 MT 5'PFS CGG 3'PFS CUA (mixed)
# RNA 1: B6 RNA 1
# RNA 2: B6 RNA 2 with G27C, A29G, U52C, G53U, U54A
# B31: target 2 MT 5'PFS GGA 3'PFS CGU (mixed)
# RNA 1: B6 RNA 1
# RNA 2: B6 RNA 2 with U52C
# B32: target 2 MT 5'PFS UGU 3'PFS CGA (mixed)
# RNA 1: B6 RNA 1
# RNA 2: B6 RNA 2 with G27U, A29U, U52C, U54A
# B33: target 2 MT 5'PFS UUG 3'PFS UCC (mixed)
# RNA 1: B6 RNA 1
# RNA 2: B6 RNA 2 with G27U, G28U, A29G, G53C, U54C
# B34: target 2 MT 5'PFS UUG 3'PFS ACC (mixed)
# RNA 1: B6 RNA 1
# RNA 2: B6 RNA 2 with G27U, G28U, A29G, U52A, G53C, U54C
# B35: target 2 MT 5'PFS UUG 3'PFS ACA (mixed)
# RNA 1: B6 RNA 1
# RNA 2: B6 RNA 2 with G27U, G28U, A29G, U52A, G53C, U54A
# B36: target 2 MT 5'PFS UAA 3'PFS UCA (mixed)
# RNA 1: B6 RNA 1
# RNA 2: B6 RNA 2 with G27U, G28A, G53C, U54A
# B37: target 2 MT 5'PFS GGA 3'PFS CGG (mixed)
# RNA 1: B6 RNA 1
# RNA 2: B6 RNA 2 with U52C, U54G
# Target: T1, EsCas13d, nuclease-dead
# Experiment: crRNA (strand 1, pre-loaded); Mg2+; 40 mM Tris-HCl pH 7.5, 150 mM NaCl, 6 mM MgCl2, 1 mM DTT, 0.1% Tween-20, 0.2 mg/ml BSA; 25 C; 10 min per concentration, then washed
# Conditions: tags: His6-TwinStrep-SUMO cleaved; N-terminal SNAP kept (SNAP-Surface 488); label: 3' end held by stalled T7 RNA polymerase
row,Binder,Kd
1,B1,30 ± 6 nM
2,B2,10.7 ± 0.6 nM
3,B3,6.17 ± 0.31 nM
4,B4,22.6 ± 1.1 nM
5,B5,15.2 ± 1 nM
6,B6,16.4 ± 1.6 nM
7,B7,7.5 ± 2 nM
8,B8,3.8 ± 0.5 nM
9,B9,14 ± 4 nM
10,B10,7.2 ± 1 nM
11,B11,10.3 ± 1 nM
12,B12,11.6 ± 0.9 nM
13,B13,3.6 ± 0.5 nM
14,B14,4.4 ± 0.4 nM
15,B15,12.7 ± 3.2 nM
16,B16,7.2 ± 0.9 nM
17,B17,8.8 ± 0.9 nM
18,B18,16.2 ± 1.8 nM
19,B19,26 ± 4 nM

row,Binder,Kd
1,B20,10.5 ± 1.2 nM
2,B21,17.3 ± 2.4 nM
3,B22,6.2 ± 1 nM
4,B23,9.1 ± 0.9 nM
5,B24,4.4 ± 1.5 nM
6,B25,18.5 ± 2.9 nM
7,B26,25 ± 5 nM
8,B27,11.8 ± 1.4 nM
9,B28,4.4 ± 0.5 nM
10,B29,18.5 ± 1.6 nM
11,B30,6.1 ± 0.8 nM
12,B31,19.9 ± 3.1 nM
13,B32,10.3 ± 1.7 nM
14,B33,42 ± 7 nM
15,B34,47 ± 10 nM
16,B35,15 ± 1.4 nM
17,B36,6.8 ± 1.7 nM
18,B37,9.8 ± 0.8 nM
